# Measured values taken from the Immune Epitope Database (IEDB).
# pKd: −log10 of the molar value.
# Legend:
# HLA-B*07:02 = assay: IEDB peptide-MHC binding, purified MHC/direct/fluorescence; filed as Kd, often an IC50 or EC50 that approximates it; ≥ and ≤ were set here for values at or beyond the usual limits of such assays
# HLA-B*08:01 = assay: as above
# HLA-B*40:01 [1] = assay: as above
# HLA-B*15:01 = assay: as above
# HLA-A*11:01 = assay: as above
# HLA-A*03:01 [2] = assay: as above
# HLA-A*01:01 = assay: as above
# HLA-A*69:01 = assay: as above
# HLA-A*26:01 = assay: as above
# HLA-B*58:01 = assay: as above
# HLA-A*31:01 = assay: as above
# HLA-B*27:05 = assay: as above
# HLA-B*44:02 [3] = assay: as above
# HLA-B*46:01 = assay: IEDB peptide-MHC binding, purified MHC/competitive/fluorescence; filed as Kd, often an IC50 or EC50 that approximates it; ≥ and ≤ were set here for values at or beyond the usual limits of such assays; settings: source organism: Giardia lamblia ATCC 50803
# HLA-B*40:01 [4] = assay: IEDB peptide-MHC binding, purified MHC/competitive/radioactivity; filed as Kd, often an IC50 or EC50 that approximates it; ≥ and ≤ were set here for values at or beyond the usual limits of such assays
# HLA-B*44:03 = assay: as above
# HLA-B*40:02 = assay: as above
# HLA-B*18:01 = assay: as above
# HLA-B*45:01 = assay: as above
# HLA-B*44:02 [5] = assay: as above
# HLA-A*02:01 = assay: IEDB peptide-MHC binding, purified MHC/direct/fluorescence; filed as Kd, often an IC50 or EC50 that approximates it; ≥ and ≤ were set here for values at or beyond the usual limits of such assays
# HLA-A*03:01 [6] = assay: IEDB peptide-MHC binding, purified MHC/competitive/fluorescence; filed as Kd, often an IC50 or EC50 that approximates it; ≥ and ≤ were set here for values at or beyond the usual limits of such assays; settings: source organism: Influenza A virus (A/Puerto Rico/8/1934(H1N1))
# [7] = source organism: Giardia lamblia ATCC 50803
# [8] = source organism: SARS coronavirus Tor2
# [9] = source organism: Mammarenavirus guanaritoense
# [10] = source organism: Lymphocytic choriomeningitis virus (strain Armstrong)
# [11] = source organism: Mammarenavirus machupoense
# [12] = source organism: Salmonella enterica
sequence,measurement,setting,value
AAFLDDNAF,pKd,HLA-B*07:02; [7],≤ 4.70
same,pKd,HLA-B*08:01; [7],≤ 4.70
same,pKd,HLA-B*40:01 [1]; [7],≤ 4.70
same,pKd,HLA-B*15:01; [7],6.97
same,pKd,HLA-A*11:01; [7],≤ 4.70
same,pKd,HLA-A*03:01 [2]; [7],≤ 4.70
same,pKd,HLA-A*01:01; [7],≤ 4.70
same,pKd,HLA-A*69:01; [7],≤ 4.70
same,pKd,HLA-A*26:01; [7],≤ 4.70
same,pKd,HLA-B*58:01; [7],≤ 4.70
same,pKd,HLA-A*31:01; [7],≤ 4.70
same,pKd,HLA-B*27:05; [7],≤ 4.70
same,pKd,HLA-B*44:02 [3]; [7],≤ 4.70
same,pKd,HLA-B*46:01,6.93
AEAAVKPLL,pKd,HLA-B*40:01 [4]; [8],8.07
same,pKd,HLA-B*44:03; [8],7.27
same,pKd,HLA-B*40:02; [8],4.71
same,pKd,HLA-B*18:01; [8],≤ 4.11
same,pKd,HLA-B*45:01; [8],6.82
same,pKd,HLA-B*44:02 [5]; [8],7.22
AEAYCTGML,pKd,HLA-B*40:01 [4]; [9],6.94
same,pKd,HLA-B*44:03; [9],6.46
same,pKd,HLA-B*40:02; [9],6.95
same,pKd,HLA-B*18:01; [9],≤ 4.11
same,pKd,HLA-B*45:01; [9],5.86
same,pKd,HLA-B*44:02 [5]; [9],6.74
AEFWDVFLS,pKd,HLA-B*07:02; [7],≤ 4.70
same,pKd,HLA-A*02:01; [7],≤ 4.70
same,pKd,HLA-B*08:01; [7],≤ 4.70
same,pKd,HLA-B*40:01 [1]; [7],7.30
same,pKd,HLA-B*15:01; [7],≤ 4.70
same,pKd,HLA-A*11:01; [7],≤ 4.70
same,pKd,HLA-A*03:01 [2]; [7],≤ 4.70
same,pKd,HLA-A*01:01; [7],≤ 4.70
same,pKd,HLA-A*69:01; [7],≤ 4.70
same,pKd,HLA-A*26:01; [7],≤ 4.70
same,pKd,HLA-B*58:01; [7],≤ 4.70
same,pKd,HLA-A*31:01; [7],≤ 4.70
same,pKd,HLA-B*27:05; [7],≤ 4.70
same,pKd,HLA-B*44:02 [3]; [7],≤ 4.70
AEGSRGGSQA,pKd,HLA-B*40:01 [4]; [8],≤ 4.55
same,pKd,HLA-B*44:03; [8],4.84
same,pKd,HLA-B*40:02; [8],4.73
same,pKd,HLA-B*18:01; [8],≤ 4.15
same,pKd,HLA-B*45:01; [8],6.69
same,pKd,HLA-B*44:02 [5]; [8],5.07
AEVVKLPSRY,pKd,HLA-B*40:01 [4]; [8],4.82
same,pKd,HLA-B*44:03; [8],7.12
same,pKd,HLA-B*40:02; [8],≤ 4.65
same,pKd,HLA-B*18:01; [8],5.30
same,pKd,HLA-B*45:01; [8],5.01
same,pKd,HLA-B*44:02 [5]; [8],6.84
CIYRRFKYGLK,pKd,HLA-A*03:01 [6],8.25
DEDDSEPVL,pKd,HLA-B*40:01 [4]; [8],6.86
same,pKd,HLA-B*44:03; [8],4.80
same,pKd,HLA-B*40:02; [8],5.50
same,pKd,HLA-B*18:01; [8],5.28
same,pKd,HLA-B*45:01; [8],4.75
same,pKd,HLA-B*44:02 [5]; [8],≤ 4.42
DESALNISGY,pKd,HLA-B*40:01 [4]; [9],≤ 4.16
same,pKd,HLA-B*44:03; [9],5.47
same,pKd,HLA-B*40:02; [9],≤ 4.53
same,pKd,HLA-B*18:01; [9],7.65
same,pKd,HLA-B*45:01; [9],≤ 4.15
same,pKd,HLA-B*44:02 [5]; [9],4.96
EDFLLMYEM,pKd,HLA-B*40:01 [4]; [9],4.77
same,pKd,HLA-B*44:03; [9],5.59
same,pKd,HLA-B*40:02; [9],8.25
same,pKd,HLA-B*18:01; [9],7.04
same,pKd,HLA-B*45:01; [9],5.33
same,pKd,HLA-B*44:02 [5]; [9],6.24
EDQLLPFMS,pKd,HLA-B*40:01 [4]; [10],≤ 4.23
same,pKd,HLA-B*44:03; [10],≤ 4.11
same,pKd,HLA-B*40:02; [10],≤ 4.18
same,pKd,HLA-B*18:01; [10],≤ 4.26
same,pKd,HLA-B*45:01; [10],5.43
same,pKd,HLA-B*44:02 [5]; [10],≤ 4.45
EEPAALLPLS,pKd,HLA-B*40:01 [4]; [11],4.92
same,pKd,HLA-B*44:03; [11],≤ 4.70
same,pKd,HLA-B*40:02; [11],6.07
same,pKd,HLA-B*18:01; [11],4.94
same,pKd,HLA-B*45:01; [11],6.68
same,pKd,HLA-B*44:02 [5]; [11],5.47
EEQTDPKTL,pKd,HLA-B*07:02; [12],≤ 4.70
same,pKd,HLA-A*02:01; [12],≤ 4.70
same,pKd,HLA-B*08:01; [12],≤ 4.70
same,pKd,HLA-B*40:01 [1]; [12],5.13
same,pKd,HLA-B*15:01; [12],≤ 4.70
same,pKd,HLA-A*11:01; [12],≤ 4.70
same,pKd,HLA-A*03:01 [2]; [12],≤ 4.70
same,pKd,HLA-A*01:01; [12],≤ 4.70
same,pKd,HLA-A*69:01; [12],≤ 4.70
same,pKd,HLA-A*26:01; [12],≤ 4.70
same,pKd,HLA-B*58:01; [12],≤ 4.70
same,pKd,HLA-A*31:01; [12],≤ 4.70
same,pKd,HLA-B*27:05; [12],≤ 4.70
same,pKd,HLA-B*44:02 [3]; [12],≤ 4.70
